{
  "source": "patent US20150266977A1",
  "about": "(AbbVie / Abbott, published 2015)",
  "binders": {"B1": {"name": "MAK199-1-GS-AE10-6 AM7 QL (bispecific antibody, human IgG1, lambda, L234A L235A)", "heavy": "EVQLVQSGAEVKKPGASVKVSCKASGYTFANYGIIWVRQAPGQGLEWMGWINTYTGKPTYAQKFQGRVTMTTDTSTSTAYMELSSLRSEDTAVYYCARKLFTTMDVTDNAMDYWGQGTTVTVSSGGGGSGGGGSEVQLVQSGAEVKKPGASVKVSCKVSGYTLTELSMHWVRQAPGKGLEWMGGFDPEDGETIYAQKFQGRVTMTEDTSTDTAYMELSSLRSEDTAVYYCATDTVGYWEKFFQHWGQGTLVTVSSASTKGPSVFPLAPSSKSTSGGTAALGCLVKDYFPEPVTVSWNSGALTSGVHTFPAVLQSSGLYSLSSVVTVPSSSLGTQTYICNVNHKPSNTKVDKKVEPKSCDKTHTCPPCPAPEAAGGPSVFLFPPKPKDQLMISRTPEVTCVVVDVSHEDPEVKFNWYVDGVEVHNAKTKPREEQYNSTYRVVSVLTVLHQDWLNGKEYKCKVSNKALPAPIEKTISKAKGQPREPQVYTLPPSREEMTKNQVSLTCLVKGFYPSDIAVEWESNGQPENNYKTTPPVLDSDGSFFLYSKLTVDKSRWQQGNVFSCSVLHEALHNHYTQKSLSLSPGK", "light": "DIQMTQSPSSLSASVGDRVTITCRASQDISQYLNWYQQKPGKAPKLLIYYTSRLQSGVPSRFSGSGSGTDFTLTISSLQPEDFATYFCQQGNTWPPTFGQGTKLEIKRGGSGGGGSGQAVVTQEPSLTVSPGGTVTLTCGSSTGTVTIDHYPYWFQQKPGQAPRTLISDTDDKHSWTPARFSGSLLGGKAALTLSGAQPEDEAEYYCLLDYGGRFVFGGGTKLTVLGQPKAAPSVTLFPPSSEELQANKATLVCLISDFYPGAVTVAWKADSSPVKAGVETTTPSKQSNNKYAASSYLSLTPEQWKSHRSYSCQVTHEGSTVEKTVAPTECS", "notes": "DVD-Ig with CH QL"}, "B2": {"name": "AE10-6 AM7-GS-MAK195-21 (bispecific antibody, human IgG1, kappa, L234A L235A)", "heavy": "not shown", "light": "QAVVTQEPSLTVSPGGTVTLTCGSSTGTVTIDHYPYWFQQKPGQAPRTLISDTDDKHSWTPARFSGSLLGGKAALTLSGAQPEDEAEYYCLLDYGGRFVFGGGTKLTVLGGGSGGGGSGDIQMTQSPSSLSASVGDRVTITCRASQLVSSAVAWYQQKPGKAPKLLIYWASARHTGVPSRFSGSGSGTDFTLTISSLQPEDFATYYCQQHYKTPFTFGQGTKLEIKRTVAAPSVFIFPPSDEQLKSGTASVVCLLNNFYPREAKVQWKVDNALQSGNSQESVTEQDSKDSTYSLSSTLTLSKADYEKHKVYACEVTHQGLSSPVTKSFNRGEC", "notes": "DVD-Ig: outer AE10-6 AM7, inner MAK195-21"}, "B3": {"name": "MSL10 (antibody, V domains shown)", "VH": "EVQLVESGGGLVQPGGSLRLSCTASGFTFDDYALHWVRQAPGKGLEWVSGISWHGDFIDYADSVKGRFTISRDNSKNTLYLQMNGLRVEDMAIYYCAGNNRGYGGLDVWGQGTTVTVSS", "VL": "not shown", "notes": "fully human mAb"}, "B4": {"name": "MSL17 (antibody, V domains shown)", "VH": "EVQLLESGGGLVKPGRSLRLSCVAYGFSLTGYSMNWVRQAPGKGLEWVSSISPNDTYRHYADSVKGRFTISRDNAKNSLYLQMNSLRAEDTAVYYCARDTNYRDSGGYFYDVFDIWGQGTMVTVSS", "VL": "SYELTQPPSVSVAPGETARVTCEGNNIGNKGVHWYQQKPGQAPVLVVYDDSDRPSGIPERFSGSNSGNTATLTISRVEAGDDADYYCQVWDSSSDVFGSGTKVTVLG", "notes": "fully human mAb"}, "B5": {"name": "MSL9-8 (antibody, V domains shown)", "VH": "EVQLVESGGGLVQPGGSLRLSCAASGFRFTDYWMTWVRQAPGKGPEWVANINEDGSKKHYADSVKDRFIISRDNAKKSLSLQMKRMRAEDTAVYYCAADLNPHWLVGWGQGTLVTVSS", "VL": "QPVLTQPPSVSVAPGKTARITCGGNNIGSRRVHWYQQKPGQAPVLVVYDDNDRPSGIPERFSGSKSGNTATLTISRVEAGDEADYYCQVWHSGRVFGTGTKVTVLG", "notes": "fully human mAb"}, "B6": {"name": "MSK9 (antibody, V domains shown)", "VH": "B5 VH with V5L, R28T, T30R, D31S, T35S, P45L, N50S, N52K, E53Q", "VL": "DIVMTQTPLSLPVTPGEPASISCRSSQSLLHSNGYNYLDWYLQKPGQSPQLLIYLGSKRASGVPDRFSGSGSGTDFTLKISRVGAEDVGVYYCMQGLQTPKAFGPGTKVDIKR", "notes": "fully human mAb"}},
  "key": {"[1]": {"target": "T1, recombinant human sclerostin (human, UniProt Q9BQB4 24-213)", "T1 construct": "biotinylated in the ELISAs; also called hu sclerostin; hu scl", "T1 sequence": "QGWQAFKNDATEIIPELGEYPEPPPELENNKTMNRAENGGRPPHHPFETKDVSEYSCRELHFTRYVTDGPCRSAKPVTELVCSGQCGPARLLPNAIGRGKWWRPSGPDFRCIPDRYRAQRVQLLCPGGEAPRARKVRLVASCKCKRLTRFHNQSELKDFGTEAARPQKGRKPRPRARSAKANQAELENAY", "assay": "SPR", "method": "(§1) The binding of antibodies or anti-sclerostin-TNF DVD to purified recombinant human, cynomolgus monkey (cyno), rat and mouse sclerostin and TNFα was determined by surface plasmon resonance-based measurements with a Biacore T100 or T200 instruments (GE Healthcare Life Sciences, Piscataway, N.J., USA) using running HBS-EP+ (10 mM HEPES [pH 7.4], 150 mM NaCl, 3 mM EDTA, and 0.005% surfactant P20) containing additional 150 mM NaCl, and/or 10 mg/ml carboxymethyl dextran, 0.1 mg/ml BSA at 25° C. All chemicals were obtained from GE Healthcare Life Sciences, Piscataway, N.J., USA or otherwise from a different source as described in the text. Approximately 10,000 RU (or 3000 RU when CM3 chip was used) of goat anti-mouse or anti-human IgG (Fcγ) fragment specific polyclonal antibody (Pierce Biotechnology Inc, Rockford, Ill.) diluted in 10 mM sodium acetate (pH 4.5) was directly immobilized across a CM5 (or CM3) research grade biosensor chip using a standard amine coupling kit according to manufacturer's instructions and procedures at 15 μg/ml. Unreacted moieties on the biosensor surface were blocked with ethanolamine. Modified carboxymethyl dextran surface in flowcells 2, 3 and 4 were used as a reaction surface. Modified carboxymethyl dextran in flow cell 1 was used as the reference surface. Biaevaluation T100 software version 2.0.2, GE Healthcare Life Sciences was used to simultaneously fit association and dissociation phases of all injections (using 1:1 fit analysis with local Rmax). Purified antibodies were diluted in running buffer for capture across goat anti-mouse or anti-human IgG specific reaction surfaces. Antibodies to be captured as a ligand (1 μg/ml) were injected over reaction matrices at a flow rate of 10 μl/minute. The association and dissociation rate constants, kon (unit M-1 s-1) and koff (unit s-1) were determined under a continuous flow rate of 50 μl/minute. […] At the end of each cycle the surfaces were regenerated with 10 s injection of 50 mM NaOH or/and by 10 s injection of 10 mM Glycine pH1.5 at a flow rate of 100 μl/min."}, "[2]": {"target": "T2, recombinant cynomolgus monkey sclerostin (cynomolgus monkey)", "T2 construct": "also called cyno sclerostin; Cyno sclerostin", "assay": "SPR", "method": "as §1"}, "recombinant human TNF-α [3]": {"target": "T3, recombinant human TNF-α (human, UniProt P01375 77-233)", "T3 construct": "also called huTNF; Human TNFa", "T3 sequence (P01375 77-233 limits assumed)": "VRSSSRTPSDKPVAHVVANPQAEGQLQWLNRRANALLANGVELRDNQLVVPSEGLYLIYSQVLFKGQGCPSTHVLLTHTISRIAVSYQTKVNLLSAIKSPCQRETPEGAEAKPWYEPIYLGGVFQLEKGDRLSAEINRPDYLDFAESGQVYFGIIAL", "assay": "SPR", "method": "as §1"}, "recombinant human TNF-α [4]": {"target": "T3, recombinant human TNF-α", "assay": "cell-based or functional assay"}, "Rhesus/cynoTNFa": {"target": "Rhesus/cynoTNFa (Rhesus/cyno)", "sequence (P48094 whole entry)": "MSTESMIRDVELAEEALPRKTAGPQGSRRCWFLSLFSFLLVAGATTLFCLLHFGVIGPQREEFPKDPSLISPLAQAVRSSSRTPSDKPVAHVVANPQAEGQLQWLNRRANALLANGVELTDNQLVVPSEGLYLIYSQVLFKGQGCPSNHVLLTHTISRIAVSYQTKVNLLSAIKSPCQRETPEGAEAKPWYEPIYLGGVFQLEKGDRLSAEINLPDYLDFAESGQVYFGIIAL", "assay": "cell-based or functional assay"}, "[5]": {"target": "T1, recombinant human sclerostin", "assay": "capture ELISA, biotin-sclerostin"}, "[6]": {"target": "T1, recombinant human sclerostin", "assay": "direct bind ELISA"}},
  "note": "Numbering of substitutions follows the chain as printed.",
  "data": [
    {"binder": "B1", "values": [
      {"measurement": "Kd", "setting": "[1]", "result": "< 0.00016", "unit": "nM"},
      {"measurement": "koff", "setting": "[1]", "result": "< 1e-06", "unit": "s⁻¹"},
      {"measurement": "kon", "setting": "[1]", "result": "6.1e+06", "unit": "M⁻¹ s⁻¹"},
      {"measurement": "Kd", "setting": "[2]", "result": "< 0.0001", "unit": "nM"},
      {"measurement": "koff", "setting": "[2]", "result": "< 1e-06", "unit": "s⁻¹"},
      {"measurement": "kon", "setting": "[2]", "result": "9.9e+06", "unit": "M⁻¹ s⁻¹"},
      {"measurement": "Kd", "setting": "recombinant human TNF-α [3]", "result": 0.007, "unit": "nM"},
      {"measurement": "koff", "setting": "recombinant human TNF-α [3]", "result": "3e-05", "unit": "s⁻¹"},
      {"measurement": "kon", "setting": "recombinant human TNF-α [3]", "result": "4.2e+06", "unit": "M⁻¹ s⁻¹"},
      {"measurement": "L929 TNF neutralization IC50 with 50 nM SOST", "setting": "recombinant human TNF-α [4]", "result": 0.032, "unit": "nM"},
      {"measurement": "L929 TNF neutralization IC50 without 50 nM SOST", "setting": "recombinant human TNF-α [4]", "result": 0.033, "unit": "nM"}
    ]},
    {"binder": "B2", "values": [
      {"measurement": "Kd", "setting": "[1]", "result": "< 0.00015", "unit": "nM"},
      {"measurement": "koff", "setting": "[1]", "result": "< 1e-06", "unit": "s⁻¹"},
      {"measurement": "kon", "setting": "[1]", "result": "6.8e+06", "unit": "M⁻¹ s⁻¹"},
      {"measurement": "L929 TNF neutralization IC50", "setting": "Rhesus/cynoTNFa", "result": "> 2", "unit": "nM"}
    ]},
    {"binder": "B3", "values": [
      {"measurement": "EC50", "setting": "[5]", "result": 0.427, "unit": "nM"}
    ]},
    {"binder": "B4", "values": [
      {"measurement": "EC50", "setting": "[5]", "result": 0.778, "unit": "nM"}
    ]},
    {"binder": "B5", "values": [
      {"measurement": "EC50", "setting": "[5]", "result": 12.3, "unit": "nM"}
    ]},
    {"binder": "B6", "values": [
      {"measurement": "binding result", "setting": "[6]", "result": "binds"}
    ]}
  ]
}
